Numbering of substitutions follows the chain as printed. Names and notes keep the numbering of the source. Where two headings read alike, the source gives them in different places.
B1: Antibody 7 IgG1 (antibody, V domains shown)
VH: not shown
VL: NFMLTQPHSVSESPGKTVTISCTRSSGSLANYYVQWYQQRPGSSPTIVIFANNQRPSGVPDRFSGSIDSSSNSASLTISGLKTEDEADYYCQTYDPYSVVFGGGTKLTVL
notes: human IgG1, lambda; constant regions not in the listing; also called Antibody 07
B2: Antibody 4 IgG1 (antibody, V domains shown)
VH: not shown
VL: B1 VL with S44A, G80R, T93S, D95S, Y97T
B3: Antibody 1 scFv (scFv, V domains shown)
VH: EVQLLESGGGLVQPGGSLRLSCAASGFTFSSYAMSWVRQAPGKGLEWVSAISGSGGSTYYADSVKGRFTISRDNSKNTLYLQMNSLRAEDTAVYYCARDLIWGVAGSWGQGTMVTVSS
VL: B1 VL with S44A, G80R, T93S, P96D, Y97S
notes: scFv (one chain); also called TINA12
B4: Antibody 12 IgG1 (antibody, V domains shown)
VH: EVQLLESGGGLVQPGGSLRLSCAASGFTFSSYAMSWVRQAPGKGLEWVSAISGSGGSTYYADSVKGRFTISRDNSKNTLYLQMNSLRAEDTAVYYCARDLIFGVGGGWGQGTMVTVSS
VL: B1 VL with S44A, G80R
B5: Antibody 10 IgG1 (antibody, V domains shown)
VH: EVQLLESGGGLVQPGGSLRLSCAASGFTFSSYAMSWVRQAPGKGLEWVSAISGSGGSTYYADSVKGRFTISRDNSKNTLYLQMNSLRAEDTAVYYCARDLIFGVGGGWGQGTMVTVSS
VL: B1 VL with S44A, G80R, T93S, Y97H
B6: Antibody 5 IgG1 (antibody, V domains shown)
VH: not shown
VL: B1 VL with S44A, G80R, T93S, D95N, P96H, Y97K, S98D, V99I
B7: Antibody 3 IgG1 (antibody, V domains shown)
VH: not shown
VL: B1 VL with S44A, G80R, T93S, D95S, Y97H
B8: Antibody 9 IgG1 (antibody, V domains shown)
VH: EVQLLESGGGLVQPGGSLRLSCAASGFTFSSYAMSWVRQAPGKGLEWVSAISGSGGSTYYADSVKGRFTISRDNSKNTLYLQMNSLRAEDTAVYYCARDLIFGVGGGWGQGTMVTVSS
VL: B1 VL with S44A, G80R, T93S, D95S, Y97H
B9: Antibody 8 scFv (scFv, V domains shown)
VH: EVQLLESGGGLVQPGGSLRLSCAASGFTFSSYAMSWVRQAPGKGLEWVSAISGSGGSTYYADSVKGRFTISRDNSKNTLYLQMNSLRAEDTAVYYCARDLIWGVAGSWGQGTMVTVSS
VL: B1 VL with S44A, G80R, T93S, D95N, P96H, Y97K, S98D, V99I
notes: scFv (one chain)
B10: Antibody 11 scFv (scFv, V domains shown)
VH: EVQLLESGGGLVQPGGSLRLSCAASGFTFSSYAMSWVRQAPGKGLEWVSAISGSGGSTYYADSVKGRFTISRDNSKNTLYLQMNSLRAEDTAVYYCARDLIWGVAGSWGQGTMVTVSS
VL: B1 VL with S44A, G80R, T93S, D95S, Y97H
notes: scFv (one chain)
B11: Antibody 2 scFv (non-germlined) (scFv, V domains shown)
VH: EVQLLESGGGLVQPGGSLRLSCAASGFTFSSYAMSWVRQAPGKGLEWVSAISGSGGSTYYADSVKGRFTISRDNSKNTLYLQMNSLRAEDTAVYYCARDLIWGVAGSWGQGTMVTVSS
VL: B1 VL with S44A, G80R, T93S, Y97H
notes: scFv (one chain)
B12: Antibody 15 scFv (non-germlined) (scFv, V domains shown)
VH: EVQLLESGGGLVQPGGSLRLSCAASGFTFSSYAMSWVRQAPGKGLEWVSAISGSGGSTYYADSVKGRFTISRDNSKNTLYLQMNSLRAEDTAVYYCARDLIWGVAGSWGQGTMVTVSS
VL: B1 VL with S44A, G80R, T93S, D95S, Y97T
notes: scFv (one chain)
B13: Antibody 6 scFv (non-germlined) (scFv, V domains shown)
VH: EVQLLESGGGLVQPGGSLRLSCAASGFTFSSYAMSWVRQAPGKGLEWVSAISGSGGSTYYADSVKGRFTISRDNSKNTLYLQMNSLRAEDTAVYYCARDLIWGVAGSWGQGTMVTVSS
VL: B1 VL with S44A, G80R, T93S, D95S, Y97S
notes: scFv (one chain)
B14: Antibody 13 scFv (non-germlined) (scFv, V domains shown)
VH: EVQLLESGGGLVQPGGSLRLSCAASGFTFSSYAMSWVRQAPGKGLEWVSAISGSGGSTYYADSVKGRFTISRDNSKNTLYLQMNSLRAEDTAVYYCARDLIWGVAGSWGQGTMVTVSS
VL: B1 VL with S44A, G80R, T93S, Y97R, S98V
notes: scFv (one chain)
B15: Antibody 16 scFv (scFv, V domains shown)
VH: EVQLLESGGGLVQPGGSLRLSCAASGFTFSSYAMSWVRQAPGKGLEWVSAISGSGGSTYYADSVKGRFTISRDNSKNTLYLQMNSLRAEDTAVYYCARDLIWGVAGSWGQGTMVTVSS
VL: B1 VL with S44A, G80R
notes: scFv (one chain)
B16: Antibody 14 scFv (non-germlined) (scFv, V domains shown)
VH: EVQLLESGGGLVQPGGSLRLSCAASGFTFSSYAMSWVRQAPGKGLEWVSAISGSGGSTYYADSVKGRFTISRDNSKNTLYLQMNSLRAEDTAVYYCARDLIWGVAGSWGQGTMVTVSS
VL: B1 VL with S44A, G80R, T93S, Y97T, S98N, V99Q
notes: scFv (one chain)
B17: murine IL-17A (R & D Systems) (ligand, UniProt Q62386 22-158, looked up)
chain: TVKAAAIIPQSSACPNTEAKDFLQNVKVNLKVFNSLGAKVSSRRPSDYLNRSTSPWTLHRNEDPDRYPSVIWEAQCRHQRCVNAEGKLDHHMNSVLIQQEILVLKREPESCPFTFRVEKMLVGVGCTCVASIVRQAA
B18: dog IL-17A (in house E. Coli derived) (ligand)
chain: GIAFPQNPGCRNTEDKNFPQHVKVNLNILNRNTNSRRPSDYYNRSTSPWNLHRNEDPERYPSVIWEAKCRHLGCVNNEGNINYHMNSVPIQQEILVLRRESQHCPHSFRLEKMLVAVGCTCVTPIVRHVA
B19: Mutant IL-17A (L74Q, G75R, I77V, D80E, N82K, V83L, Y85H) with C-terminal His tag (HEK/EBNA) (ligand)
chain: GITIPRNPGCPNSEDKNFPRTVMVNLNIHNRNTNTNPKRSSDYYNRSTSPWNLHRNEDPERYPSVIWEAKCRHQRCVNAEGKLDHHMNSVPIQQEILVLRREPPHCPNSFRLEKILVSVGCTCVTPIVHHVAHHHHH

Columns and labels:
[1] = biological target: T1, cynomolgus IL-17A (cynomolgus, UniProt Q16552 24-155 (human entry), limits assumed); assay: cell-based or functional assay
T1 chain: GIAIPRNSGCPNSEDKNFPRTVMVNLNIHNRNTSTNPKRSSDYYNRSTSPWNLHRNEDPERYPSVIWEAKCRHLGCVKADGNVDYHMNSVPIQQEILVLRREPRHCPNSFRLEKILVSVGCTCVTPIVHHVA

[2] = biological target: T2, human IL-17A derived from the HEK-EBNA expression system (human, UniProt Q16552 24-155); assay: cell-based or functional assay
[3] = biological target: T3, human IL-17A, untagged, E. coli derived (in house or Peprotech) (human, UniProt Q16552 24-155); assay: cell-based or functional assay
[4] = biological target: T3, human IL-17A, untagged, E. coli derived …; assay: cell-based or functional assay; remark: listed apart in the source
[5] = biological target: T3, human IL-17A, untagged, E. coli derived …; assay: cell-based or functional assay; remark: listed apart in the source
[6] = biological target: T3, human IL-17A, untagged, E. coli derived …; assay: cell-based or functional assay; remark: listed apart in the source
[7] = biological target: T2, human IL-17A derived from the HEK-EBNA …; assay: estimated from pA2 (Schild) analysis in the HT1080 IL-6 release assay
[8] = biological target: T3, human IL-17A, untagged, E. coli derived …; assay: SPR BIAcore 2000; IgG1 amine-coupled on CM3, IL-17A 0.78-50 nM as analyte; 1:1 Langmuir fit
[9] = biological target: T1, cynomolgus IL-17A; assay: as above
[10] = biological target: T4, Human IL-17A-Flag-His10 (HEK) (human, UniProt Q16552 24-155); assay: as above
T4 construct: may be the same protein as the HIS FLAG IL-17A; not shown: Flag-His10 tag

[11] = biological target: T3, human IL-17A, untagged, E. coli derived …; assay: SPR BIAcore 2000; IgG1 amine-coupled on CM3, IL-17A 0.78-50 nM as analyte; Bivalent Analyte fit (kd1/ka1)
[12] = biological target: T1, cynomolgus IL-17A; assay: as above
[13] = biological target: T5, HIS FLAG tagged human IL-17A (in house HEK EBNA derived) (human, UniProt Q16552 24-155); assay: HTRF receptor-ligand assay: inhibition of HIS FLAG IL-17A binding IL-17RA Fc
T5 construct: glycosylated, from HEK EBNA cells; also called HIS FLAG IL-17A; HIS FLAG human IL-17A; not shown: HIS FLAG tag

[14] = biological target: T5, HIS FLAG tagged human IL-17A (in house …); assay: as above; remark: listed apart in the source
[15] = biological target: T5, HIS FLAG tagged human IL-17A (in house …); assay: HTRF receptor-ligand assay: inhibition of HIS FLAG IL-17A binding IL-17RA Fc; scFv, non-germlined sequence
[16] = biological target: TINA1 IgG; assay: DELFIA epitope competition vs biotinylated human IL-17A on immobilised IgG
[17] = biological target: TINA10 IgG; assay: as above
[18] = biological target: TINA51 IgG; assay: as above
[19] = biological target: T6, Antibody 2 IgG1; assay: HTRF epitope competition vs HIS FLAG IL-17A binding the IgG
T6 construct: human IgG1, lambda; constant regions not in the listing; also called Antibody 02

[20] = biological target: T7, Biosource mAb (reference anti-IL-17 mAb); assay: as above
T7 construct: murine (detected with anti-murine Fc)

[21] = biological target: human IL-17A receptor on HT1080 cells (human); assay: cell-based or functional assay

T6 sequence (VH, as listed by the source): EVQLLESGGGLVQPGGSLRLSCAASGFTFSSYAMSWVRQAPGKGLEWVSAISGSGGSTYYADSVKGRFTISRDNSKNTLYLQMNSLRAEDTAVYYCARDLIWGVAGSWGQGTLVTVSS

Row | Binder | HT1080 IL-6 release, IgG IC50 [1] [nM] | HT1080 IL-6 release, IgG IC50 [2] [nM] | Fold difference in cross-reactivity (IgG) [1] [fold] | IC50 [14] [nM] | HT1080 IL-6 release, scFv IC50 [1] [nM] | HT1080 IL-6 release, scFv IC50 [2] [nM] | further results
1 | B1 | 5 | 0.7 | – | – | – | – | HT1080 IL-6 release, IgG geometric mean IC50 (n = 12) [1]: 4.8 nM; HT1080 IL-6 release, IgG geometric mean IC50 (n = 15) [2]: 0.8 nM; chondrocyte IL-8 release, geometric mean IC50 at 2 nM IL-17A [3]: 1.6 nM; chondrocyte IL-8 release, geometric mean IC50 at 2 nM IL-17A [4]: 1.3 nM; cartilage explant synergised IL-6 response, Mean IC50 [5]: 0.61 nM; RA synovial fibroblast IL-8, Mean IC50 versus IL-17A (1 nM) and TNFα (0.1 ng/ml) [6]: 4.97 nM; RA synovial fibroblast IL-8, Mean IC50 versus IL-17A (2 nM) [6]: 2.85 nM; Kd [7]: 0.553 nM; Kd [8]: 0.195 nM; Kd [9]: 0.512 nM; Kd [10]: 0.171 nM; Kd [11]: 2.1 nM; Kd [12]: 1.34 nM
2 | B2 | 7.3 | 0.9 | 8 | – | – | – | –
3 | B3 | – | – | – | 12 | – | – | HT1080 IL-6 release, scFv: % inhibition printed in the IC50 column (no IC50 reached) [2]: 70%; IC50 [13]: 12 nM
4 | B4 | 4.2 | 2.1 | 2 | – | – | – | –
5 | B5 | 4.9 | 2.2 | 2 | – | – | – | –
6 | B6 | 39.7 | 1.4 | 28 | – | – | – | –
7 | B7 | 13 | 0.8 | 16 | – | – | – | –
8 | B8 | 9.2 | 2.3 | 4 | – | – | – | –
9 | B9 | – | – | – | 0.7 | 96.4 | 34.3 | –
10 | B10 | – | – | – | 0.6 | – | 8.2 | HT1080 IL-6 release, scFv: % inhibition printed in the IC50 column (no IC50 reached) [1]: 20%
11 | B11 | – | – | – | – | 99 | 16.2 | IC50 [15]: 0.7 nM
12 | B12 | – | – | – | 1.6 | 159 | 21.7 | –
13 | B13 | – | – | – | 1.7 | 136 | 31.2 | –
14 | B14 | – | – | – | 1.6 | 147 | 35.9 | –
15 | B15 | – | – | – | – | 249 | 13 | –
16 | B16 | – | – | – | 2.5 | 99.5 | 36.7 | –
17 | B17 | – | – | – | – | – | – | Fold difference from Human IL-17A [16]: 12 fold; IC50 [16]: 98 nM; % (printed in the IC50 column, presumably inhibition) [17]: 50%; Fold difference from Human IL-17A [18]: 0.7 fold; IC50 [18]: 35 nM
18 | B18 | – | – | – | – | – | – | IC50 [19]: 34 nM; IC50 [20]: 50 nM
19 | B19 | – | – | – | – | – | – | IL-6 release from HT1080 cells, EC50 [21]: 2.36 nM

From patent publication US20080044423A1 (AstraZeneca / MedImmune, published 2008)
